According to patent publication US20250163127A1 (published 2025):
Numbering of substitutions follows the chain as printed.

T1: human CD86 (human)
T1 chain: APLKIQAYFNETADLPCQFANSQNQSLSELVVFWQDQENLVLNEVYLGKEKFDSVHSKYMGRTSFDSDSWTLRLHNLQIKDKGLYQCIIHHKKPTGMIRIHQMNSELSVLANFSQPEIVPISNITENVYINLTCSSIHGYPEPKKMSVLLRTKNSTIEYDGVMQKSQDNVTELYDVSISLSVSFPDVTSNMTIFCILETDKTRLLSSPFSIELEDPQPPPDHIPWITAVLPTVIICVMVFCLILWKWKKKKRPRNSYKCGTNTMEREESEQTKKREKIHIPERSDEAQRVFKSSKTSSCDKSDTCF

T2: CD80 (human)
T2 chain: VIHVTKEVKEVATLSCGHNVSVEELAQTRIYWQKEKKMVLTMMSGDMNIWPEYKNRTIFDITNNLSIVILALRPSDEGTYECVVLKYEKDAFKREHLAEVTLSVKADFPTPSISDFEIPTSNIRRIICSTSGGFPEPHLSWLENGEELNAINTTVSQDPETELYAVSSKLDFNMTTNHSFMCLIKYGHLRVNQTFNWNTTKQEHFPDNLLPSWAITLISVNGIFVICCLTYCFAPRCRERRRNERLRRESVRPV

B1: CTLA-4 3037-PD-L1 303-Fc (SEQ ID NO 3666) (Fc fusion)
chain: KAMHVAQPAVVLASSRGIASFVCEYASPWKATEVRVTVLRQADSQVTEVCAATYMMGSELTFPDDSICTGTSSGNQVNLTIRGLRAMDTGLYICKVEQMYPPPYLLGIGNGTQIYVIDPEPCPDSDGSGGSGGGGSGGGGSFTVTVPKDLYVVEYGSNMTIECKFPVEKQLDLAALIVYWEMEGKDIIQFVHGEEDQKAQHSSYRQRARLLKDQLSLGNAALQITDVKLQDAGVYRCMISYGGGADYKRITVKVNAGGGGSGSGGGGSEPKSSDKTHTCPPCPAPEAEGAPSVFLFPPKPKDTLMISRTPEVTCVVVDVSHEDPEVKFNWYVDGVEVHNAKTKPREEQYNSTYRVVSVLTVLHQDWLNGKEYKCKVSNKALPAPIEKTISKAKGQPREPQVYTLPPSRDELTKNQVSLTCLVKGFYPSDIAVEWESNGQPENNYKTTPPVLDSDGSFFLYSKLTVDKSRWQQGNVFSCSVMHEALHNHYTQKSLSLSPG
B2: PD-L1 303-CTLA-4 3037-Fc (SEQ ID NO 3668) (Fc fusion)
chain: FTVTVPKDLYVVEYGSNMTIECKFPVEKQLDLAALIVYWEMEGKDIIQFVHGEEDQKAQHSSYRQRARLLKDQLSLGNAALQITDVKLQDAGVYRCMISYGGGADYKRITVKVNAGSGGSGGGGSGGGGSKAMHVAQPAVVLASSRGIASFVCEYASPWKATEVRVTVLRQADSQVTEVCAATYMMGSELTFPDDSICTGTSSGNQVNLTIRGLRAMDTGLYICKVEQMYPPPYLLGIGNGTQIYVIDPEPCPDSDGGGGSGSGGGGSEPKSSDKTHTCPPCPAPEAEGAPSVFLFPPKPKDTLMISRTPEVTCVVVDVSHEDPEVKFNWYVDGVEVHNAKTKPREEQYNSTYRVVSVLTVLHQDWLNGKEYKCKVSNKALPAPIEKTISKAKGQPREPQVYTLPPSRDELTKNQVSLTCLVKGFYPSDIAVEWESNGQPENNYKTTPPVLDSDGSFFLYSKLTVDKSRWQQGNVFSCSVMHEALHNHYTQKSLSLSPG
B3: CTLA-4 3037-Fc (Fc fusion)
chain: KAMHVAQPAVVLASSRGIASFVCEYASPWKATEVRVTVLRQADSQVTEVCAATYMMGSELTFPDDSICTGTSSGNQVNLTIRGLRAMDTGLYICKVEQMYPPPYLLGIGNGTQIYVIDPEPCPDSDGSGGGGSEPKSSDKTHTCPPCPAPEAEGAPSVFLFPPKPKDTLMISRTPEVTCVVVDVSHEDPEVKFNWYVDGVEVHNAKTKPREEQYNSTYRVVSVLTVLHQDWLNGKEYKCKVSNKALPAPIEKTISKAKGQPREPQVYTLPPSRDELTKNQVSLTCLVKGFYPSDIAVEWESNGQPENNYKTTPPVLDSDGSFFLYSKLTVDKSRWQQGNVFSCSVMHEALHNHYTQKSLSLSPG
B4: CTLA-4 3037-PD-L1 303-Fc (Fc fusion)
chain: B1 chain
B5: CTLA-4 3060-PD-L1 303-Fc (Fc fusion)
chain: B1 chain with L12F, R16H, M56T, S58N, P63L, R82Q
B6: CTLA4 3037-Fc-PD-L1 303 (SEQ ID NO 3672) (Fc fusion)
chain: KAMHVAQPAVVLASSRGIASFVCEYASPWKATEVRVTVLRQADSQVTEVCAATYMMGSELTFPDDSICTGTSSGNQVNLTIRGLRAMDTGLYICKVEQMYPPPYLLGIGNGTQIYVIDPEPCPDSDGSGGGGSEPKSSDKTHTCPPCPAPEAEGAPSVFLFPPKPKDTLMISRTPEVTCVVVDVSHEDPEVKFNWYVDGVEVHNAKTKPREEQYNSTYRVVSVLTVLHQDWLNGKEYKCKVSNKALPAPIEKTISKAKGQPREPQVYTLPPSRDELTKNQVSLTCLVKGFYPSDIAVEWESNGQPENNYKTTPPVLDSDGSFFLYSKLTVDKSRWQQGNVFSCSVMHEALHNHYTQKSLSLSPGGGGGSGGGGSGGGGSAFTVTVPKDLYVVEYGSNMTIECKFPVEKQLDLAALIVYWEMEGKDIIQFVHGEEDQKAQHSSYRQRARLLKDQLSLGNAALQITDVKLQDAGVYRCMISYGGGADYKRITVKVNA
B7: PD-L1 303-CTLA-4 3037-Fc (Fc fusion)
chain: B2 chain
B8: PD-L1 303-CTLA4 3060-Fc (Fc fusion)
chain: B2 chain with L142F, R146H, M186T, S188N, P193L, R212Q
B9: CTLA4 3037-Fc (Fc fusion)
chain: B3 chain
B10: CTLA-4 3037-Fc-PD-L1 303 (SEQ ID NO 3670) (Fc fusion)
chain: KAMHVAQPAVVLASSRGIASFVCEYASPWKATEVRVTVLRQADSQVTEVCAATYMMGSELTFPDDSICTGTSSGNQVNLTIRGLRAMDTGLYICKVEQMYPPPYLLGIGNGTQIYVIDPEPCPDSDGSGGGGSEPKSSDKTHTCPPCPAPEAEGAPSVFLFPPKPKDTLMISRTPEVTCVVVDVSHEDPEVKFNWYVDGVEVHNAKTKPREEQYNSTYRVVSVLTVLHQDWLNGKEYKCKVSNKALPAPIEKTISKAKGQPREPQVYTLPPSRDELTKNQVSLTCLVKGFYPSDIAVEWESNGQPENNYKTTPPVLDSDGSFFLYSKLTVDKSRWQQGNVFSCSVMHEALHNHYTQKSLSLSPGGGGGSGGGGSGGGGSFTVTVPKDLYVVEYGSNMTIECKFPVEKQLDLAALIVYWEMEGKDIIQFVHGEEDQKAQHSSYRQRARLLKDQLSLGNAALQITDVKLQDAGVYRCMISYGGGADYKRITVKVNA

Molecular target: T1, human CD86
Test: cell-based or functional assay

100 nM IFN-gamma (pg/mL), SEB assay [pg/mL]	Binder
2050	B1
6100	B2
807	B3

Molecular target: PD-1 (human, UniProt Q15116)
Test: cell-based or functional assay

100 nM IFN-gamma (pg/mL), SEB assay [pg/mL]	Binder
2050	B1
6100	B2

Molecular target: T2, CD80
Test: flow cytometry, CHO-CD80 cells

EC50 [nM]	Binder
2.3	B4
2.3	B5
0.921	B6
1.4	B7
3.4	B8
1.7	B9
1.9	B10

Molecular target: human PD-1 (human, UniProt Q15116)
Test: flow cytometry, Jurkat/IL-2/PD-1 cells

EC50 [nM]	Binder
111	B4
0.6	B5
6.8	B6
1	B7
0.5	B8
4.5	B10
